US20250161356A1

Legend:
[1] = biological target: BTN2A1-BTN3A1-zipper ectodomain complex (wild type) (human) (UniProt Q7KYR7); assay: flow cytometry, complex tetramer MFI on transfected BTN2A.BTN3A KO HEK293T cells; mean ± SEM; control
[2] = biological target: BTN2A1-BTN3A1 complex peptide on (human); assay: PE-labelled BTN2A1-BTN3A1 complex tetramer on BTN2A.BTN3A-knockout HEK293T cells transfected with the TCR and CD3; reduced against WT G115; full-length, on cells
[3] = biological target: full-length human BTN3A1 on transfected cells (human) (UniProt O00481); assay: flow cytometry, γδTCR tetramer-PE on BTN3A1+ NIH-3T3 cells, isotype (IgG1κ)-treated (black number), GFP+ gate; SAv ctl 28
[4] = biological target: G115 Vγ9Vδ2+ TCR wild-type, full-length, on transfected HEK293T cells (human); assay: flow cytometry, tetramer-PE versus CD3-APC on HEK293T cells co-transfected with CD3 and G115 WT TCR; SAv ctl 27
[5] = biological target: BTN2A1 on transfected cells (human) (UniProt Q7KYR7); assay: flow cytometry, control tetramer-PE on BTN2A1+ NIH-3T3 cells, mAb 20.1-treated (grey number), GFP+ gate; SAv ctl 22
[6] = biological target: G115 Vγ9Vδ2+ TCR Glu52δ-Ala on transfected HEK293T cells (human); assay: flow cytometry, tetramer-PE versus CD3-APC on HEK293T cells co-transfected with CD3 and G115 Glu52δ-Ala TCR; SAv ctl 32
[7] = biological target: G115 Vγ9Vδ2+ TCR His85γ-Ala on transfected HEK293T cells (human); assay: flow cytometry, tetramer-PE versus CD3-APC on HEK293T cells co-transfected with CD3 and G115 His85γ-Ala TCR; SAv ctl 27
[8] = biological target: G115 Vγ9Vδ2+ TCR Lys53δ-Ala on transfected HEK293T cells (human); assay: flow cytometry, tetramer-PE versus CD3-APC on HEK293T cells co-transfected with CD3 and G115 Lys53δ-Ala TCR; SAv ctl 27
[9] = biological target: full-length human BTN3A1 on transfected cells (human) (UniProt O00481); assay: flow cytometry, control tetramer-PE on BTN3A1+ NIH-3T3 cells, isotype (IgG1κ)-treated (black number), GFP+ gate; SAv ctl 25

Sequence of G115 Vγ9Vδ2+ TCR His85γ-Ala on transfected HEK293T cells (human) (TCR delta, as listed by the source, chain 1 of 2): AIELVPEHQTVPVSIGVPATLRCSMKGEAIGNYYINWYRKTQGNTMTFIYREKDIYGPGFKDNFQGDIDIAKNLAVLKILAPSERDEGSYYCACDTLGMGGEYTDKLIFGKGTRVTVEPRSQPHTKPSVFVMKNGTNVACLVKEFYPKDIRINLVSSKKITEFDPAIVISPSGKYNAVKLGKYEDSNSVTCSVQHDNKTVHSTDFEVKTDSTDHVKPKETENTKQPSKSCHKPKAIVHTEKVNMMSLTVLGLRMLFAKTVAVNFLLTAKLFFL
Sequence of G115 Vγ9Vδ2+ TCR His85γ-Ala on transfected HEK293T cells (human) (TCR gamma, as listed by the source, chain 2 of 2): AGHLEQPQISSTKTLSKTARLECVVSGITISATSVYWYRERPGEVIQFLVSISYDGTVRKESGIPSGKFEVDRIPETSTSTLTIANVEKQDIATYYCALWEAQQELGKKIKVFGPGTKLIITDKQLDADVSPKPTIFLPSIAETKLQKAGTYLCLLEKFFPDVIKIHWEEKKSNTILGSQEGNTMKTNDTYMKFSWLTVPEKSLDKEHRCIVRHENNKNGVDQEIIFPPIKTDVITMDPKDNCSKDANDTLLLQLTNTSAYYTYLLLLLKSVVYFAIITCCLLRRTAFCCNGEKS
Sequence of BTN2A1 on transfected cells (human) (Q7KYR7 29-527 limits assumed): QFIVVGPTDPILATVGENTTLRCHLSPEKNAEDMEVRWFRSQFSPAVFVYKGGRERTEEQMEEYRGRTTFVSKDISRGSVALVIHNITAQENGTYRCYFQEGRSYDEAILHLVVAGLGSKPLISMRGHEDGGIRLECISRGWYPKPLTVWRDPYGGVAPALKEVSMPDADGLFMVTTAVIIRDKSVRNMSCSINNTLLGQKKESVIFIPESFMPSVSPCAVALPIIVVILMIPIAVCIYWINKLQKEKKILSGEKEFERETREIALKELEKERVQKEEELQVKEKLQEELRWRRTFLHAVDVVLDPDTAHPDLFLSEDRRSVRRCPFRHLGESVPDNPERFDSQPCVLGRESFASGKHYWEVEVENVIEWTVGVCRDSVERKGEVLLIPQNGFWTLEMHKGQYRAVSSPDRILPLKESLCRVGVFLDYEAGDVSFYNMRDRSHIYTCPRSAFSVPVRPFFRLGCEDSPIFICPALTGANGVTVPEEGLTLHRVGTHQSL

Q: With “CD3 complex on HEK293T cells transfected with CD3 only (receptor)” as the substance, how does the fold-change of BTN2A1-BTN3A1 complex tetramer MFI relative to WT G115 TCR [1] read?
A: The fold-change of BTN2A1-BTN3A1 complex tetramer MFI relative to WT G115 TCR was 0.3 fold.

Q: With G115 Vγ9Vδ2+ TCR K53D as the substance, how does the fold change of tetramer MFI against WT G115 TCR [2] read?
A: The fold change of tetramer MFI against WT G115 TCR was 0.8 fold.

Q: G115 Vγ9Vδ2+ TCR K53E was tested. Which fold change of tetramer MFI against WT G115 TCR [2] did it give?
A: The fold change of tetramer MFI against WT G115 TCR was 0.7 fold.

Q: Which MFI of PE [3] does the source give for “chimeric γδTCR tetramer: G115 Vγ9+ γ-chain with 9C2 Vδ1+ δ-chain” here?
A: Its MFI of PE is 24.

Q: What does the source list for mCD1d tet. ctl?
A: median fluorescence of PE [4]: 20; MFI of PE [5]: 20; median fluorescence of PE [6]: 28; median fluorescence of PE [7]: 22; median fluorescence of PE [8]: 23; MFI of PE [9]: 32
